Data published in the array DNA melting data of Ke et al..

experiment: melting temperature; melt of duplexes; conditions: sodium 0.0675 M; strand 1 µM

Substance | Tm [°C]
CGACGTGCTGTATGTGCTG+CAGCACATAGCGCACGTCG ((((((((..(((((((((+)))))))))..)))))))) | 49.9
CGACGTGCCAGATGTGCTG+CAGCACATACGGCACGTCG (((((((((..((((((((+))))))))..))))))))) | 54.7
CGACGTGCCATATGTGCTG+CAGCACATTGGGCACGTCG (((((((((..((((((((+))))))))..))))))))) | 55.6
CGACGTGCGCTATGTGCTG+CAGCACATCGAGCACGTCG ((((((((.(.((((((((+)))))))).).)))))))) | 53.1
CGACGTGCGGTATGTGCTG+CAGCACATAGCGCACGTCG (((((((((.(((((((((+))))))))).))))))))) | 62.5
CGACGTGCTGGATGTGCTG+CAGCACATGAGGCACGTCG ((((((((...((((((((+))))))))...)))))))) | 54
CGACGTGCGGGATGTGCTG+CAGCACATTAGGCACGTCG ((((((((...((((((((+))))))))...)))))))) | 51.9
CGACGTGCGGTATGTGCTG+CAGCACATCTGGCACGTCG ((((((((...((((((((+))))))))...)))))))) | 51.6
CGACGTGCACAATGTGCTG+CAGCACATACCGCACGTCG ((((((((...((((((((+))))))))...)))))))) | 44.6
CGACGTGCCTTATGTGCTG+CAGCACATGCAGCACGTCG ((((((((...((((((((+))))))))...)))))))) | 49
CGACGTGCTCTATGTGCTG+CAGCACATGTAGCACGTCG (((((((((..((((((((+))))))))..))))))))) | 52.3
CGACGTGCCGCATGTGCTG+CAGCACATTAGGCACGTCG (((((((((..((((((((+))))))))..))))))))) | 55.3
CGACGTGCATCATGTGCTG+CAGCACATGCTGCACGTCG (((((((((.(((((((((+))))))))).))))))))) | 55.8
CGACGTGCCGGATGTGCTG+CAGCACATGATGCACGTCG ((((((((...((((((((+))))))))...)))))))) | 49
CGACGTGCATAATGTGCTG+CAGCACATGTGGCACGTCG ((((((((...((((((((+))))))))...)))))))) | 51
CGACGTGCCGGATGTGCTG+CAGCACATGTGGCACGTCG (((((((((..((((((((+))))))))..))))))))) | 57.3
CGACGTGCACGATGTGCTG+CAGCACATTGCGCACGTCG ((((((((.(.((((((((+)))))))).).)))))))) | 52.1
CGACGTGCACTATGTGCTG+CAGCACATGCTGCACGTCG (((((((((..((((((((+))))))))..))))))))) | 45.5
CGACGTGCGTAATGTGCTG+CAGCACATGTTGCACGTCG ((((((((...((((((((+))))))))...)))))))) | 51.7
CGACGTGCATTATGTGCTG+CAGCACATCGTGCACGTCG (((((((((..((((((((+))))))))..))))))))) | 47.3
CGACGTGCTCAATGTGCTG+CAGCACATGCGGCACGTCG ((((((((...((((((((+))))))))...)))))))) | 49.4
CGACGTGCAGCATGTGCTG+CAGCACATAAGGCACGTCG ((((((((...((((((((+))))))))...)))))))) | 47.6
CGACGTGCATTATGTGCTG+CAGCACATCATGCACGTCG ((((((((((.((((((((+)))))))).)))))))))) | 54.1
CGACGTGCTCTATGTGCTG+CAGCACATGATGCACGTCG ((((((((...((((((((+))))))))...)))))))) | 51.1

Substance | Tm [°C]
CGACGTGCATGATGTGCTG+CAGCACATAAAGCACGTCG ((((((((.(.((((((((+)))))))).).)))))))) | 50.7
CGACGTGCTCGATGTGCTG+CAGCACATCGAGCACGTCG (((((((((((((((((((+))))))))))))))))))) | 66.6
CGACGTGCTGCATGTGCTG+CAGCACATTGGGCACGTCG ((((((((...((((((((+))))))))...)))))))) | 50.1
CGACGTGCCGAATGTGCTG+CAGCACATCACGCACGTCG ((((((((...((((((((+))))))))...)))))))) | 48.9
CGACGTGCAAGATGTGCTG+CAGCACATGCGGCACGTCG ((((((((...((((((((+))))))))...)))))))) | 50.2
CGACGTGCCGCATGTGCTG+CAGCACATGTTGCACGTCG ((((((((..(((((((((+)))))))))..)))))))) | 54.5
CGACGTGCCTAATGTGCTG+CAGCACATTCCGCACGTCG ((((((((..(((((((((+)))))))))..)))))))) | 49.7
CGACGTGCCTTATGTGCTG+CAGCACATGCTGCACGTCG ((((((((...((((((((+))))))))...)))))))) | 45.1
CGACGTGCTGCATGTGCTG+CAGCACATGCGGCACGTCG ((((((((.((((((((((+)))))))))).)))))))) | 63
CGACGTGCATCATGTGCTG+CAGCACATGTAGCACGTCG ((((((((..(((((((((+)))))))))..)))))))) | 55.3
CGACGTGCATGATGTGCTG+CAGCACATGCAGCACGTCG ((((((((...((((((((+))))))))...)))))))) | 50.4
CGACGTGCGAAATGTGCTG+CAGCACATGACGCACGTCG (((((((((..((((((((+))))))))..))))))))) | 55
CGACGTGCTGGATGTGCTG+CAGCACATCGCGCACGTCG ((((((((..(((((((((+)))))))))..)))))))) | 54.8
CGACGTGCCGTATGTGCTG+CAGCACATTACGCACGTCG ((((((((...((((((((+))))))))...)))))))) | 50.9
CGACGTGCCCAATGTGCTG+CAGCACATATCGCACGTCG ((((((((...((((((((+))))))))...)))))))) | 47.1
CGACGTGCAGAATGTGCTG+CAGCACATGTGGCACGTCG ((((((((...((((((((+))))))))...)))))))) | 51.7
CGACGTGCGGCATGTGCTG+CAGCACATGCAGCACGTCG ((((((((.((((((((((+)))))))))).)))))))) | 63.1
CGACGTGCCTTATGTGCTG+CAGCACATGAAGCACGTCG ((((((((.(.((((((((+)))))))).).)))))))) | 50.5
CGACGTGCCGCATGTGCTG+CAGCACATTTTGCACGTCG ((((((((...((((((((+))))))))...)))))))) | 46.2
CGACGTGCCAAATGTGCTG+CAGCACATCACGCACGTCG ((((((((...((((((((+))))))))...)))))))) | 47.3
CGACGTGCGGGATGTGCTG+CAGCACATTAAGCACGTCG ((((((((...((((((((+))))))))...)))))))) | 53.9
CGACGTGCGCGATGTGCTG+CAGCACATTCTGCACGTCG ((((((((...((((((((+))))))))...)))))))) | 50.4
CGACGTGCCGAATGTGCTG+CAGCACATTTCGCACGTCG ((((((((..(((((((((+)))))))))..)))))))) | 52.4
CGACGTGCCAGATGTGCTG+CAGCACATCCCGCACGTCG ((((((((..(((((((((+)))))))))..)))))))) | 53.3

Substance | Tm [°C]
CGACGTGCACAATGTGCTG+CAGCACATTGGGCACGTCG ((((((((.((((((((((+)))))))))).)))))))) | 61.2
CGACGTGCTACATGTGCTG+CAGCACATCGCGCACGTCG ((((((((...((((((((+))))))))...)))))))) | 46.9
CGACGTGCACAATGTGCTG+CAGCACATGAAGCACGTCG ((((((((...((((((((+))))))))...)))))))) | 49.9
CGACGTGCTGGATGTGCTG+CAGCACATGATGCACGTCG ((((((((...((((((((+))))))))...)))))))) | 51.7
CGACGTGCGCAATGTGCTG+CAGCACATCCAGCACGTCG ((((((((...((((((((+))))))))...)))))))) | 51.1
CGACGTGCGGAATGTGCTG+CAGCACATTTAGCACGTCG ((((((((..(((((((((+)))))))))..)))))))) | 55.1
CGACGTGCTGAATGTGCTG+CAGCACATGTCGCACGTCG ((((((((...((((((((+))))))))...)))))))) | 52.1
CGACGTGCGTTATGTGCTG+CAGCACATGACGCACGTCG ((((((((((.((((((((+)))))))).)))))))))) | 58.9
CGACGTGCGTTATGTGCTG+CAGCACATAGCGCACGTCG (((((((((.(((((((((+))))))))).))))))))) | 58.3
CGACGTGCGTGATGTGCTG+CAGCACATGATGCACGTCG ((((((((.(.((((((((+)))))))).).)))))))) | 54
CGACGTGCCTGATGTGCTG+CAGCACATAGAGCACGTCG ((((((((...((((((((+))))))))...)))))))) | 51.2
CGACGTGCGCGATGTGCTG+CAGCACATGGCGCACGTCG ((((((((((.((((((((+)))))))).)))))))))) | 62
CGACGTGCCCAATGTGCTG+CAGCACATTCGGCACGTCG (((((((((.(((((((((+))))))))).))))))))) | 55.8
CGACGTGCAATATGTGCTG+CAGCACATAAAGCACGTCG ((((((((..(((((((((+)))))))))..)))))))) | 52
CGACGTGCTACATGTGCTG+CAGCACATTAGGCACGTCG ((((((((...((((((((+))))))))...)))))))) | 50.5
CGACGTGCACAATGTGCTG+CAGCACATCTCGCACGTCG ((((((((...((((((((+))))))))...)))))))) | 45.1
CGACGTGCACAATGTGCTG+CAGCACATACAGCACGTCG ((((((((...((((((((+))))))))...)))))))) | 45.4
CGACGTGCCGGATGTGCTG+CAGCACATCCAGCACGTCG ((((((((.((((((((((+)))))))))).)))))))) | 59
CGACGTGCTTAATGTGCTG+CAGCACATTGCGCACGTCG ((((((((..(((((((((+)))))))))..)))))))) | 50.1
CGACGTGCTTCATGTGCTG+CAGCACATATCGCACGTCG ((((((((...((((((((+))))))))...)))))))) | 47.5
CGACGTGCCCTATGTGCTG+CAGCACATAAGGCACGTCG (((((((((.(((((((((+))))))))).))))))))) | 55.6
CGACGTGCATAATGTGCTG+CAGCACATGTTGCACGTCG (((((((((..((((((((+))))))))..))))))))) | 53.7
CGACGTGCTAAATGTGCTG+CAGCACATTAAGCACGTCG (((((((((.(((((((((+))))))))).))))))))) | 55.8
CGACGTGCCCGATGTGCTG+CAGCACATTACGCACGTCG ((((((((...((((((((+))))))))...)))))))) | 48
